Test results reported in the supplement of paper PMC9112550, “Optimization of the antimicrobial peptide Bac7 by deep mutational scanning” (BMC Biology, 2022).

System: Escherichia coli TOP10
Experiment: shrunken log2 fold change of peptide-encoding DNA abundance (4.5 h post-induction vs induction); higher = less antimicrobial activity (less host growth inhibition)
Conditions: time post-induction: 4.5 h; library: site-saturation at positions 5, 18, 19, 20
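Further: peptides expressed intracellularly from a pBAD plasmid library in pooled LB shake-flask culture, induced with 0.3% L-arabinose, DNA abundance read by NGS, three biological replicates, DESeq2 with apeglm shrinkage.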

RRIRFRPPRLPRPRPRPKHKPRP
shrunken log2 fold change: -0.265

RRIRKRPPRLPRPRPRPASWPRP
shrunken log2 fold change: 0.625

RRIRTRPPRLPRPRPRPRVVPRP
shrunken log2 fold change: 1.87

RRIRPRPPRLPRPRPRPKTNPRP
shrunken log2 fold change: 0.0176

RRIRQRPPRLPRPRPRPANMPRP
shrunken log2 fold change: -0.242

RRIRFRPPRLPRPRPRPWTRPRP
shrunken log2 fold change: -0.0481

RRIRVRPPRLPRPRPRPQAQPRP
shrunken log2 fold change: 0.173

RRIRMRPPRLPRPRPRPDRKPRP
shrunken log2 fold change: 0.0503

RRIRVRPPRLPRPRPRPGTHPRP
shrunken log2 fold change: -0.056

RRIRGRPPRLPRPRPRPNYQPRP
shrunken log2 fold change: -0.173

RRIRDRPPRLPRPRPRPASNPRP
shrunken log2 fold change: -0.15

RRIRTRPPRLPRPRPRPDFGPRP
shrunken log2 fold change: -0.0474

RRIRWRPPRLPRPRPRPIKNPRP
shrunken log2 fold change: 0.136

RRIRSRPPRLPRPRPRPPQHPRP
shrunken log2 fold change: 0.184

RRIRGRPPRLPRPRPRPVRPPRP
shrunken log2 fold change: 0.994

RRIRRRPPRLPRPRPRPNVFPRP
shrunken log2 fold change: 0.426

RRIRHRPPRLPRPRPRPMSPPRP
shrunken log2 fold change: 0.0565

RRIRRRPPRLPRPRPRPVSNPRP
shrunken log2 fold change: -0.111

RRIRTRPPRLPRPRPRPRLQPRP
shrunken log2 fold change: 0.123

RRIRVRPPRLPRPRPRPCNMPRP
shrunken log2 fold change: -0.247

RRIRSRPPRLPRPRPRPWNFPRP
shrunken log2 fold change: -0.0212

RRIRKRPPRLPRPRPRPYCVPRP
shrunken log2 fold change: -0.382

RRIRPRPPRLPRPRPRPILMPRP
shrunken log2 fold change: -0.112

RRIRVRPPRLPRPRPRPTGTPRP
shrunken log2 fold change: 0.699

RRIRTRPPRLPRPRPRPFDWPRP
shrunken log2 fold change: 0.0371

RRIRTRPPRLPRPRPRPLVEPRP
shrunken log2 fold change: -0.0326

RRIRIRPPRLPRPRPRPSARPRP
shrunken log2 fold change: -0.067

RRIRKRPPRLPRPRPRPCLDPRP
shrunken log2 fold change: -0.173

RRIRDRPPRLPRPRPRPQWMPRP
shrunken log2 fold change: -0.176

RRIRARPPRLPRPRPRPQQLPRP
shrunken log2 fold change: 0.176

RRIRGRPPRLPRPRPRPKCTPRP
shrunken log2 fold change: 0.978

RRIRDRPPRLPRPRPRPPFFPRP
shrunken log2 fold change: 0.174

RRIRARPPRLPRPRPRPFSKPRP
shrunken log2 fold change: -0.301

RRIRMRPPRLPRPRPRPEQFPRP
shrunken log2 fold change: 0.216

RRIRPRPPRLPRPRPRPEVPPRP
shrunken log2 fold change: 0.0363

RRIRSRPPRLPRPRPRPTQVPRP
shrunken log2 fold change: 0.839

RRIRRRPPRLPRPRPRPQHVPRP
shrunken log2 fold change: -0.0783

RRIRTRPPRLPRPRPRPDGGPRP
shrunken log2 fold change: -0.145

RRIRLRPPRLPRPRPRPAGMPRP
shrunken log2 fold change: 0.213

RRIRIRPPRLPRPRPRPQIAPRP
shrunken log2 fold change: -0.0185

RRIRVRPPRLPRPRPRPHIYPRP
shrunken log2 fold change: -0.519

RRIRHRPPRLPRPRPRPLLDPRP
shrunken log2 fold change: -0.117

RRIRKRPPRLPRPRPRPTDTPRP
shrunken log2 fold change: 0.261

RRIRFRPPRLPRPRPRPKWPPRP
shrunken log2 fold change: 0.27

RRIRWRPPRLPRPRPRPVGGPRP
shrunken log2 fold change: 0.494

RRIRMRPPRLPRPRPRPWPVPRP
shrunken log2 fold change: 0.287

RRIRMRPPRLPRPRPRPGCMPRP
shrunken log2 fold change: 0.968

RRIRKRPPRLPRPRPRPQQIPRP
shrunken log2 fold change: -0.248

RRIRLRPPRLPRPRPRPTNFPRP
shrunken log2 fold change: -0.0757

RRIRFRPPRLPRPRPRPWPHPRP
shrunken log2 fold change: -0.132

RRIRVRPPRLPRPRPRPDNCPRP
shrunken log2 fold change: -0.0588

RRIRARPPRLPRPRPRPAYTPRP
shrunken log2 fold change: -0.0472

RRIRHRPPRLPRPRPRPATGPRP
shrunken log2 fold change: -0.276

RRIRPRPPRLPRPRPRPLTCPRP
shrunken log2 fold change: -0.191

RRIRQRPPRLPRPRPRPYLFPRP
shrunken log2 fold change: -0.509

RRIRSRPPRLPRPRPRPNQLPRP
shrunken log2 fold change: -0.218

RRIRQRPPRLPRPRPRPEVIPRP
shrunken log2 fold change: -0.00663

RRIRFRPPRLPRPRPRPMVLPRP
shrunken log2 fold change: -0.0723

RRIRDRPPRLPRPRPRPMHWPRP
shrunken log2 fold change: 0.591

RRIRTRPPRLPRPRPRPYDTPRP
shrunken log2 fold change: -0.661

RRIRWRPPRLPRPRPRPFLPPRP
shrunken log2 fold change: -0.687

RRIRPRPPRLPRPRPRPDVAPRP
shrunken log2 fold change: -0.0448

RRIRNRPPRLPRPRPRPWPLPRP
shrunken log2 fold change: -0.0801

RRIRLRPPRLPRPRPRPISRPRP
shrunken log2 fold change: 0.0488

RRIRGRPPRLPRPRPRPCWFPRP
shrunken log2 fold change: 0.584

RRIRKRPPRLPRPRPRPIRHPRP
shrunken log2 fold change: 0.132

RRIRFRPPRLPRPRPRPMWPPRP
shrunken log2 fold change: -0.0873

RRIRYRPPRLPRPRPRPMPPPRP
shrunken log2 fold change: -0.331

RRIRVRPPRLPRPRPRPTTGPRP
shrunken log2 fold change: 0.141

RRIRLRPPRLPRPRPRPSRLPRP
shrunken log2 fold change: -0.0544

RRIRPRPPRLPRPRPRPSYQPRP
shrunken log2 fold change: -0.493

RRIRVRPPRLPRPRPRPWHFPRP
shrunken log2 fold change: -0.0232

RRIRARPPRLPRPRPRPMYNPRP
shrunken log2 fold change: -0.48

RRIRFRPPRLPRPRPRPVFAPRP
shrunken log2 fold change: 0.158

RRIRARPPRLPRPRPRPILLPRP
shrunken log2 fold change: -0.293

RRIRDRPPRLPRPRPRPNQQPRP
shrunken log2 fold change: -0.12

RRIRDRPPRLPRPRPRPLHGPRP
shrunken log2 fold change: 0.01

RRIRPRPPRLPRPRPRPPKVPRP
shrunken log2 fold change: 0.122

RRIRKRPPRLPRPRPRPIQVPRP
shrunken log2 fold change: -0.137

RRIRERPPRLPRPRPRPRIDPRP
shrunken log2 fold change: -0.0634

RRIRIRPPRLPRPRPRPMQRPRP
shrunken log2 fold change: -0.129

RRIRERPPRLPRPRPRPFDPPRP
shrunken log2 fold change: 0.0149

RRIRARPPRLPRPRPRPHRHPRP
shrunken log2 fold change: -0.0481

RRIRFRPPRLPRPRPRPQQEPRP
shrunken log2 fold change: -0.0424

RRIRPRPPRLPRPRPRPDTQPRP
shrunken log2 fold change: -0.371

RRIRGRPPRLPRPRPRPYFGPRP
shrunken log2 fold change: -0.335

RRIRGRPPRLPRPRPRPSKFPRP
shrunken log2 fold change: 0.0363

RRIRERPPRLPRPRPRPAVPPRP
shrunken log2 fold change: 0.0842

RRIRCRPPRLPRPRPRPMTPPRP
shrunken log2 fold change: 0.377

RRIRSRPPRLPRPRPRPNSHPRP
shrunken log2 fold change: -0.402

RRIRGRPPRLPRPRPRPPTTPRP
shrunken log2 fold change: 0.91

RRIRGRPPRLPRPRPRPDMDPRP
shrunken log2 fold change: 0.00342

RRIRIRPPRLPRPRPRPAAEPRP
shrunken log2 fold change: 0.197

RRIRYRPPRLPRPRPRPNISPRP
shrunken log2 fold change: -0.513

RRIRKRPPRLPRPRPRPVKGPRP
shrunken log2 fold change: 0.322

RRIRRRPPRLPRPRPRPLLEPRP
shrunken log2 fold change: 0.534

RRIRWRPPRLPRPRPRPRNIPRP
shrunken log2 fold change: 0.00817

RRIRVRPPRLPRPRPRPVIYPRP
shrunken log2 fold change: -0.39

RRIRMRPPRLPRPRPRPSKRPRP
shrunken log2 fold change: 0.386

RRIRPRPPRLPRPRPRPHFKPRP
shrunken log2 fold change: 1.37

RRIRRRPPRLPRPRPRPMHYPRP
shrunken log2 fold change: 0.117

RRIRSRPPRLPRPRPRPCDFPRP
shrunken log2 fold change: -0.108

RRIRDRPPRLPRPRPRPYLLPRP
shrunken log2 fold change: -0.179

RRIRGRPPRLPRPRPRPLQTPRP
shrunken log2 fold change: 1.59

RRIRIRPPRLPRPRPRPADVPRP
shrunken log2 fold change: -0.134

RRIRWRPPRLPRPRPRPGTCPRP
shrunken log2 fold change: 0.0934

RRIRERPPRLPRPRPRPDCPPRP
shrunken log2 fold change: -0.559

RRIRCRPPRLPRPRPRPVIYPRP
shrunken log2 fold change: -0.493

RRIRVRPPRLPRPRPRPDQEPRP
shrunken log2 fold change: -0.00136

RRIRERPPRLPRPRPRPHTFPRP
shrunken log2 fold change: -0.14

RRIRQRPPRLPRPRPRPEPRPRP
shrunken log2 fold change: 0.508

RRIRDRPPRLPRPRPRPLMYPRP
shrunken log2 fold change: -0.00328

RRIRARPPRLPRPRPRPKTTPRP
shrunken log2 fold change: 0.0562

RRIRARPPRLPRPRPRPWPEPRP
shrunken log2 fold change: 0.245

RRIRWRPPRLPRPRPRPTLTPRP
shrunken log2 fold change: 0.697

RRIRTRPPRLPRPRPRPYVNPRP
shrunken log2 fold change: -0.189

RRIRTRPPRLPRPRPRPHAKPRP
shrunken log2 fold change: 0.0187

RRIRHRPPRLPRPRPRPHWTPRP
shrunken log2 fold change: -0.00191

RRIRHRPPRLPRPRPRPCICPRP
shrunken log2 fold change: -0.347

RRIRVRPPRLPRPRPRPIWKPRP
shrunken log2 fold change: -0.168

RRIRARPPRLPRPRPRPIFLPRP
shrunken log2 fold change: -0.0119

RRIRMRPPRLPRPRPRPRCQPRP
shrunken log2 fold change: 0.00313

RRIRCRPPRLPRPRPRPEPEPRP
shrunken log2 fold change: 0.706

RRIRSRPPRLPRPRPRPIWVPRP
shrunken log2 fold change: 0.0576

RRIRCRPPRLPRPRPRPPKRPRP
shrunken log2 fold change: 0.797

RRIRGRPPRLPRPRPRPIVQPRP
shrunken log2 fold change: 0.606

RRIRHRPPRLPRPRPRPMVYPRP
shrunken log2 fold change: -0.0125

RRIRNRPPRLPRPRPRPVNAPRP
shrunken log2 fold change: 0.16

RRIRIRPPRLPRPRPRPVYRPRP
shrunken log2 fold change: 0.00778

RRIRQRPPRLPRPRPRPSAQPRP
shrunken log2 fold change: -0.223

RRIRMRPPRLPRPRPRPGAHPRP
shrunken log2 fold change: 0.473

RRIRARPPRLPRPRPRPCDCPRP
shrunken log2 fold change: -0.21

RRIRTRPPRLPRPRPRPQQKPRP
shrunken log2 fold change: -0.0118

RRIRIRPPRLPRPRPRPRFTPRP
shrunken log2 fold change: -0.043

RRIRARPPRLPRPRPRPHHNPRP
shrunken log2 fold change: -0.483

RRIRKRPPRLPRPRPRPFTHPRP
shrunken log2 fold change: 0.0159

RRIRYRPPRLPRPRPRPRFHPRP
shrunken log2 fold change: -0.939

RRIRDRPPRLPRPRPRPISAPRP
shrunken log2 fold change: 0.0787

RRIRNRPPRLPRPRPRPTVKPRP
shrunken log2 fold change: -0.00906

RRIRCRPPRLPRPRPRPHIIPRP
shrunken log2 fold change: -0.11

RRIRDRPPRLPRPRPRPYRAPRP
shrunken log2 fold change: -0.118

RRIRIRPPRLPRPRPRPPQCPRP
shrunken log2 fold change: -0.244

RRIRKRPPRLPRPRPRPPPYPRP
shrunken log2 fold change: 0.249

RRIRNRPPRLPRPRPRPQFIPRP
shrunken log2 fold change: -0.125

RRIRIRPPRLPRPRPRPKEMPRP
shrunken log2 fold change: -0.297

RRIRLRPPRLPRPRPRPMLKPRP
shrunken log2 fold change: -0.295

RRIRNRPPRLPRPRPRPWYWPRP
shrunken log2 fold change: -0.109

RRIRCRPPRLPRPRPRPWHVPRP
shrunken log2 fold change: -0.259

RRIRWRPPRLPRPRPRPCDDPRP
shrunken log2 fold change: -0.00725

RRIRRRPPRLPRPRPRPGVPPRP
shrunken log2 fold change: 0.264
